The text below walks through data of paper PMC12315501 (2025).

In this test the target is recombinant NbRab‐G3c protein (Nicotiana benthamiana). Kind of test: ITC.

B1: recombinant Pi17063 protein (natural protein)
chain: ASADSNERLVRAVYSTVRSRDLATDDGPKHTKRFLRGESSKIVNLKQEEGVFEERKGVSQKLTKALQAIKARYLKWEQKVLVPGFKKMAEKGVTYSELRDTFRVRMMNSGRWGTPSGFKRYARLYSEWLHRTGRSHLAK
In the case of B1, the Kd came out at 1480 nM.
